Assay results as given in US20110118447A1.

Molecular target: binding partner of C5A (XPA23)
Test: Biacore K-off

B1: C5A (XPA23) VL T52W (antibody, V domains shown)
VH: EVQLLESGGGLVQPGGSLRLSCAASGFTFSKYFMFWVRQAPGKGLEWVSVISPSGGMTRYADSVKGRFTISRDNSKNTLYLQMNSLRAEDTAVYYCARVGYGGNSDYWGQGTLVTVSS
VL: DIQMTQSPSSVSASVGDRLTIICRASQDINRWLAWYQQTPGNAPKLLIHSAWSLQSGVPSRFSGSGSGTDFTLTINSLQPEDFATYYCQQADSFPLTFGGGTKVEIK
**Q.** Which fold difference in affinity vs original does the source give for B1 here?
**A.** 0.87 fold

B2: C5A (XPA23) VL S93A (antibody, V domains shown)
VH: EVQLLESGGGLVQPGGSLRLSCAASGFTFSKYFMFWVRQAPGKGLEWVSVISPSGGMTRYADSVKGRFTISRDNSKNTLYLQMNSLRAEDTAVYYCARVGYGGNSDYWGQGTLVTVSS
VL: DIQMTQSPSSVSASVGDRLTIICRASQDINRWLAWYQQTPGNAPKLLIHSATSLQSGVPSRFSGSGSGTDFTLTINSLQPEDFATYYCQQADAFPLTFGGGTKVEIK
**Q.** B2 was tested. Which fold difference in affinity vs original did it give?
**A.** 1.16 fold

B3: C5A (XPA23) VL D92I (antibody, V domains shown)
VH: EVQLLESGGGLVQPGGSLRLSCAASGFTFSKYFMFWVRQAPGKGLEWVSVISPSGGMTRYADSVKGRFTISRDNSKNTLYLQMNSLRAEDTAVYYCARVGYGGNSDYWGQGTLVTVSS
VL: DIQMTQSPSSVSASVGDRLTIICRASQDINRWLAWYQQTPGNAPKLLIHSATSLQSGVPSRFSGSGSGTDFTLTINSLQPEDFATYYCQQAISFPLTFGGGTKVEIK
**Q.** Which fold difference in affinity vs original does the source give for B3 here?
**A.** 0.33 fold

B4: C5A (XPA23) VL A91V (antibody, V domains shown)
VH: EVQLLESGGGLVQPGGSLRLSCAASGFTFSKYFMFWVRQAPGKGLEWVSVISPSGGMTRYADSVKGRFTISRDNSKNTLYLQMNSLRAEDTAVYYCARVGYGGNSDYWGQGTLVTVSS
VL: DIQMTQSPSSVSASVGDRLTIICRASQDINRWLAWYQQTPGNAPKLLIHSATSLQSGVPSRFSGSGSGTDFTLTINSLQPEDFATYYCQQVDSFPLTFGGGTKVEIK
**Q.** Which fold difference in affinity vs original does the source give for B4 here?
**A.** 0.51 fold

B5: C5A (XPA23) VL S53L (antibody, V domains shown)
VH: EVQLLESGGGLVQPGGSLRLSCAASGFTFSKYFMFWVRQAPGKGLEWVSVISPSGGMTRYADSVKGRFTISRDNSKNTLYLQMNSLRAEDTAVYYCARVGYGGNSDYWGQGTLVTVSS
VL: DIQMTQSPSSVSASVGDRLTIICRASQDINRWLAWYQQTPGNAPKLLIHSATLLQSGVPSRFSGSGSGTDFTLTINSLQPEDFATYYCQQADSFPLTFGGGTKVEIK
**Q.** B5 was tested. Which fold difference in affinity vs original did it give?
**A.** 0.99 fold

B6: C5A (XPA23) VL T52P (antibody, V domains shown)
VH: EVQLLESGGGLVQPGGSLRLSCAASGFTFSKYFMFWVRQAPGKGLEWVSVISPSGGMTRYADSVKGRFTISRDNSKNTLYLQMNSLRAEDTAVYYCARVGYGGNSDYWGQGTLVTVSS
VL: DIQMTQSPSSVSASVGDRLTIICRASQDINRWLAWYQQTPGNAPKLLIHSAPSLQSGVPSRFSGSGSGTDFTLTINSLQPEDFATYYCQQADSFPLTFGGGTKVEIK
**Q.** B6 was tested. Which fold difference in affinity vs original did it give?
**A.** 1.08 fold

B7: C5A (XPA23) VL D92G (antibody, V domains shown)
VH: EVQLLESGGGLVQPGGSLRLSCAASGFTFSKYFMFWVRQAPGKGLEWVSVISPSGGMTRYADSVKGRFTISRDNSKNTLYLQMNSLRAEDTAVYYCARVGYGGNSDYWGQGTLVTVSS
VL: DIQMTQSPSSVSASVGDRLTIICRASQDINRWLAWYQQTPGNAPKLLIHSATSLQSGVPSRFSGSGSGTDFTLTINSLQPEDFATYYCQQAGSFPLTFGGGTKVEIK
**Q.** For B7, which fold difference in affinity vs original is on record?
**A.** 0.26 fold

B8: C5A (XPA23) VL D92L (antibody, V domains shown)
VH: EVQLLESGGGLVQPGGSLRLSCAASGFTFSKYFMFWVRQAPGKGLEWVSVISPSGGMTRYADSVKGRFTISRDNSKNTLYLQMNSLRAEDTAVYYCARVGYGGNSDYWGQGTLVTVSS
VL: DIQMTQSPSSVSASVGDRLTIICRASQDINRWLAWYQQTPGNAPKLLIHSATSLQSGVPSRFSGSGSGTDFTLTINSLQPEDFATYYCQQALSFPLTFGGGTKVEIK
**Q.** For B8, which fold difference in affinity vs original is on record?
**A.** 0.14 fold

B9: C5A (XPA23) VL S93G (antibody, V domains shown)
VH: EVQLLESGGGLVQPGGSLRLSCAASGFTFSKYFMFWVRQAPGKGLEWVSVISPSGGMTRYADSVKGRFTISRDNSKNTLYLQMNSLRAEDTAVYYCARVGYGGNSDYWGQGTLVTVSS
VL: DIQMTQSPSSVSASVGDRLTIICRASQDINRWLAWYQQTPGNAPKLLIHSATSLQSGVPSRFSGSGSGTDFTLTINSLQPEDFATYYCQQADGFPLTFGGGTKVEIK
**Q.** For B9, which fold difference in affinity vs original is on record?
**A.** 0.75 fold

B10: C5A (XPA23) VL S53V (antibody, V domains shown)
VH: EVQLLESGGGLVQPGGSLRLSCAASGFTFSKYFMFWVRQAPGKGLEWVSVISPSGGMTRYADSVKGRFTISRDNSKNTLYLQMNSLRAEDTAVYYCARVGYGGNSDYWGQGTLVTVSS
VL: DIQMTQSPSSVSASVGDRLTIICRASQDINRWLAWYQQTPGNAPKLLIHSATVLQSGVPSRFSGSGSGTDFTLTINSLQPEDFATYYCQQADSFPLTFGGGTKVEIK
**Q.** B10 was tested. Which fold difference in affinity vs original did it give?
**A.** 1.42 fold

B11: C5A (XPA23) VL D92A (antibody, V domains shown)
VH: EVQLLESGGGLVQPGGSLRLSCAASGFTFSKYFMFWVRQAPGKGLEWVSVISPSGGMTRYADSVKGRFTISRDNSKNTLYLQMNSLRAEDTAVYYCARVGYGGNSDYWGQGTLVTVSS
VL: DIQMTQSPSSVSASVGDRLTIICRASQDINRWLAWYQQTPGNAPKLLIHSATSLQSGVPSRFSGSGSGTDFTLTINSLQPEDFATYYCQQAASFPLTFGGGTKVEIK
**Q.** How did the fold difference in affinity vs original turn out when B11 was run?
**A.** 0.4 fold

B12: C5A (XPA23) VL D92W (antibody, V domains shown)
VH: EVQLLESGGGLVQPGGSLRLSCAASGFTFSKYFMFWVRQAPGKGLEWVSVISPSGGMTRYADSVKGRFTISRDNSKNTLYLQMNSLRAEDTAVYYCARVGYGGNSDYWGQGTLVTVSS
VL: DIQMTQSPSSVSASVGDRLTIICRASQDINRWLAWYQQTPGNAPKLLIHSATSLQSGVPSRFSGSGSGTDFTLTINSLQPEDFATYYCQQAWSFPLTFGGGTKVEIK
**Q.** With B12 as the binder, how does the fold difference in affinity vs original read?
**A.** 0.12 fold

B13: C5A (XPA23) VL S53F (antibody, V domains shown)
VH: EVQLLESGGGLVQPGGSLRLSCAASGFTFSKYFMFWVRQAPGKGLEWVSVISPSGGMTRYADSVKGRFTISRDNSKNTLYLQMNSLRAEDTAVYYCARVGYGGNSDYWGQGTLVTVSS
VL: DIQMTQSPSSVSASVGDRLTIICRASQDINRWLAWYQQTPGNAPKLLIHSATFLQSGVPSRFSGSGSGTDFTLTINSLQPEDFATYYCQQADSFPLTFGGGTKVEIK
**Q.** For B13, which fold difference in affinity vs original is on record?
**A.** 1.24 fold

B14: C5A (XPA23) VL S93I (antibody, V domains shown)
VH: EVQLLESGGGLVQPGGSLRLSCAASGFTFSKYFMFWVRQAPGKGLEWVSVISPSGGMTRYADSVKGRFTISRDNSKNTLYLQMNSLRAEDTAVYYCARVGYGGNSDYWGQGTLVTVSS
VL: DIQMTQSPSSVSASVGDRLTIICRASQDINRWLAWYQQTPGNAPKLLIHSATSLQSGVPSRFSGSGSGTDFTLTINSLQPEDFATYYCQQADIFPLTFGGGTKVEIK
**Q.** How did the fold difference in affinity vs original turn out when B14 was run?
**A.** 1.35 fold

B15: C5A (XPA23) VL S53G (antibody, V domains shown)
VH: EVQLLESGGGLVQPGGSLRLSCAASGFTFSKYFMFWVRQAPGKGLEWVSVISPSGGMTRYADSVKGRFTISRDNSKNTLYLQMNSLRAEDTAVYYCARVGYGGNSDYWGQGTLVTVSS
VL: DIQMTQSPSSVSASVGDRLTIICRASQDINRWLAWYQQTPGNAPKLLIHSATGLQSGVPSRFSGSGSGTDFTLTINSLQPEDFATYYCQQADSFPLTFGGGTKVEIK
**Q.** With B15 as the binder, how does the fold difference in affinity vs original read?
**A.** 1.03 fold

B16: C5A (XPA23) VL D92F (antibody, V domains shown)
VH: EVQLLESGGGLVQPGGSLRLSCAASGFTFSKYFMFWVRQAPGKGLEWVSVISPSGGMTRYADSVKGRFTISRDNSKNTLYLQMNSLRAEDTAVYYCARVGYGGNSDYWGQGTLVTVSS
VL: DIQMTQSPSSVSASVGDRLTIICRASQDINRWLAWYQQTPGNAPKLLIHSATSLQSGVPSRFSGSGSGTDFTLTINSLQPEDFATYYCQQAFSFPLTFGGGTKVEIK
**Q.** B16 was tested. Which fold difference in affinity vs original did it give?
**A.** 0.26 fold

B17: C5A (XPA23) VL S53P (antibody, V domains shown)
VH: EVQLLESGGGLVQPGGSLRLSCAASGFTFSKYFMFWVRQAPGKGLEWVSVISPSGGMTRYADSVKGRFTISRDNSKNTLYLQMNSLRAEDTAVYYCARVGYGGNSDYWGQGTLVTVSS
VL: DIQMTQSPSSVSASVGDRLTIICRASQDINRWLAWYQQTPGNAPKLLIHSATPLQSGVPSRFSGSGSGTDFTLTINSLQPEDFATYYCQQADSFPLTFGGGTKVEIK
**Q.** With B17 as the binder, how does the fold difference in affinity vs original read?
**A.** 4.92 fold

B18: C5A (XPA23) VL A91L (antibody, V domains shown)
VH: EVQLLESGGGLVQPGGSLRLSCAASGFTFSKYFMFWVRQAPGKGLEWVSVISPSGGMTRYADSVKGRFTISRDNSKNTLYLQMNSLRAEDTAVYYCARVGYGGNSDYWGQGTLVTVSS
VL: DIQMTQSPSSVSASVGDRLTIICRASQDINRWLAWYQQTPGNAPKLLIHSATSLQSGVPSRFSGSGSGTDFTLTINSLQPEDFATYYCQQLDSFPLTFGGGTKVEIK
**Q.** For B18, which fold difference in affinity vs original is on record?
**A.** 0.39 fold

B19: C5A (XPA23) VL S93V (antibody, V domains shown)
VH: EVQLLESGGGLVQPGGSLRLSCAASGFTFSKYFMFWVRQAPGKGLEWVSVISPSGGMTRYADSVKGRFTISRDNSKNTLYLQMNSLRAEDTAVYYCARVGYGGNSDYWGQGTLVTVSS
VL: DIQMTQSPSSVSASVGDRLTIICRASQDINRWLAWYQQTPGNAPKLLIHSATSLQSGVPSRFSGSGSGTDFTLTINSLQPEDFATYYCQQADVFPLTFGGGTKVEIK
**Q.** How did the fold difference in affinity vs original turn out when B19 was run?
**A.** 3.81 fold

B20: C5A (XPA23) VL S53A (antibody, V domains shown)
VH: EVQLLESGGGLVQPGGSLRLSCAASGFTFSKYFMFWVRQAPGKGLEWVSVISPSGGMTRYADSVKGRFTISRDNSKNTLYLQMNSLRAEDTAVYYCARVGYGGNSDYWGQGTLVTVSS
VL: DIQMTQSPSSVSASVGDRLTIICRASQDINRWLAWYQQTPGNAPKLLIHSATALQSGVPSRFSGSGSGTDFTLTINSLQPEDFATYYCQQADSFPLTFGGGTKVEIK
**Q.** How did the fold difference in affinity vs original turn out when B20 was run?
**A.** 1.07 fold

B21: C5A (XPA23) VL S53I (antibody, V domains shown)
VH: EVQLLESGGGLVQPGGSLRLSCAASGFTFSKYFMFWVRQAPGKGLEWVSVISPSGGMTRYADSVKGRFTISRDNSKNTLYLQMNSLRAEDTAVYYCARVGYGGNSDYWGQGTLVTVSS
VL: DIQMTQSPSSVSASVGDRLTIICRASQDINRWLAWYQQTPGNAPKLLIHSATILQSGVPSRFSGSGSGTDFTLTINSLQPEDFATYYCQQADSFPLTFGGGTKVEIK
**Q.** Which fold difference in affinity vs original does the source give for B21 here?
**A.** 1.42 fold

B22: C5A (XPA23) VL S53W (antibody, V domains shown)
VH: EVQLLESGGGLVQPGGSLRLSCAASGFTFSKYFMFWVRQAPGKGLEWVSVISPSGGMTRYADSVKGRFTISRDNSKNTLYLQMNSLRAEDTAVYYCARVGYGGNSDYWGQGTLVTVSS
VL: DIQMTQSPSSVSASVGDRLTIICRASQDINRWLAWYQQTPGNAPKLLIHSATWLQSGVPSRFSGSGSGTDFTLTINSLQPEDFATYYCQQADSFPLTFGGGTKVEIK
**Q.** Which fold difference in affinity vs original does the source give for B22 here?
**A.** 1.11 fold
